B1: Fus1 (protein, UniProt P11710 1-512, looked up)
Nuclear fusion protein FUS1: MVATIMQTTTTVLTTVAAMSTTLASNYISSQASSSTSVTTVTTIATSIRSTPSNLLFSNVAAQPKSSSASTIGLSIGLPIGIFCFGLLILLCYFYLKRNSVSISNPPMSATIPREEEYCRRTNWFSRLFWQSKCEDQNSYSNRDIEKYNDTQWTSGDNMSSKIQYKISKPIIPQHILTPKKTVKNPYAWSGKNISLDPKVNEMEEEKVVDAFLYTKPPNIVHIESSMPSYNDLPSQKTVSSKKTALKTSEKWSYESPLSRWFLRGSTYFKDYGLSKTSLKTPTGAPQLKQMKMLSRISKGYFNESDIMPDERSPILEYNNTPLDANDSVNNLGNTTPDSQITSYRNNNIDLITARPHSVIYGTTAQQTLETNFNDHHDCNKSTEKHELIIPTPSKPLKKRKKRRQSKMYQHLQHLSRSKPLPLTPNSKYNGEASVQLGKTYTVIQDYEPRLTDEIRISLGEKVKILATHTDGWCLVEKCNTQKGSIHVSVDDKRYLNEDRGIVPGDCLQEYD
B2: Abp1-2 (protein, UniProt P15891 2-592, looked up)
Actin-binding protein: ALEPIDYTTHSREIDAEYLKIVRGSDPDTTWLIISPNAKKEYEPESTGSSFHDFLQLFDETKVQYGLARVSPPGSDVEKIIIIGWCPDSAPLKTRASFAANFAAVANNLFKGYHVQVTARDEDDLDENELLMKISNAAGARYSIQTSSKQQGKASTPPVKKSFTPSKSPAPVSKKEPVKTPSPAPAAKISSRVNDNNDDDDWNEPELKERDFDQAPLKPNQSSYKPIGKIDLQKVIAEEKAKEDPRLVQKPTAAGSKIDPSSDIANLKNESKLKRDSEFNSFLGTTKPPSMTESSLKNDDDKVIKGFRNEKSPAQLWAERKAKQNSGNAETKAEAPKPEVPEDEPEGEPDVKDLKSKFEGLAASEKEEEEMENKFAPPPKKSEPTIISPKPFSKPQEPVKAEEAEQPKTDYKKIGNPLPGMHIEADNEEEPEENDDDWDDDEDEAAQPPLPSRNVASGAPVQKEEPEQEEIAPSLPSRNSIPAPKQEEAPEQAPEEEIEEEAEEAAPQLPSRSSAAPPPPPRRATPEKKPKENPWATAEYDYDAAEDNELTFVENDKIINIEFVDDDWWLGELEKDGSKGLFPSNYVSLGN
B3: Boi2 (protein, UniProt P39969 1-1040, looked up)
BEM1-interacting protein 2: MSNDREVPTLSQLNTTVSRDKDVSDTLSPDFDSKGSATGRDGGNFPMYIAINEYFKRMEDELDMKPGDKIKVITDDEEYKDGWYFGRNLRTNEEGLYPVVFTQKITVEKAPTLMRAKSTKRIYSPLTNEDPLLSSTFISENDSNSELPTPQPIETAASISRTANGKIERNLSLKNTMSDIDNALLEFKDDSIGPPDRFINSGRDEEHSITHETILSATDGLDVVESNSKPTTSSSTGFLNGDLENQATLINGIDTTKLNPVEAEFWSPEEITAYFIMEGYDVQSASRFQKHKISGKILLELELVHLKELDINSFGTRFEIFKEIEKIKEAIRTNGRSLNRASKTNNANIYNQLMPPANVDQRASYRGHVRKTSQSLEDLPSQQNFIPTPRNTRNSSASKHRPKSLVFDSQEANANIAPDVQIPQVVEEMAGNENLFVSPRRAPKPPSYPSPAQPPKSPLLNNTRTSPSPAQLYSWQSPTLSFSGPKRTSYIDQYSSSDSNFNSRSALPKNNQGGGKALSPIPSPTRNSVRNEDSEGKLTSSSKRNSVPYYGYAPESSSDRKSSCSSHEEEQFQETMNTFERPTSSIYADGSTIASISNDKLAHEKEGKKKPTRHSSSLSSKSKSDSRRNSSLKRSSSASRTSSFKKSSFMLSPFRQQFTDNAARSSSPEENPITSMPSEKNSSPIVDKKSSKKSRSKRRSVSAKEAEIFTETVKDDKNKRSASEAIKGETLKGKSLRQMTARPVAKKKQTSAFIEGLRSISVKEAMKDADFSGWMSKKGSGAMSTWKTRFFTLHGTRLSYFSSTTDTRERGLIDITAHRVVPAKEDDKLVSLYAASTGKGRYCFKLLPPQPGSKKGLTFTQPRTHYFAVDNKEEMRGWMAALIKTTIDIDTSVPIISSYTTPTVSLSKAQEMLAEAREETKLREQQMLENEEDEDQFLWDQQQLQQQQHDNNQGQADRTISASTQRTSDEDNTISTPNLSSANNTTIGSNGFSSPFLLASGLLSPGVARNSSMRGTEKKGKFSTEEDYFGDNSKHKTDKI
B4: Cyk3 (protein, UniProt Q07533 1-885, looked up)
Cytokinesis protein 3: MATNLTSLKPPFKVKARYGWSGQTKGDLGFLEGDIMEVTRIAGSWFYGKLLRNKKCSGYFPHNFVILLEERLNSSTENGRQPSKIVESFEKSNKVVIPPVPSRYSDERPRPKKKLSSSMPNSPKKPVDSLTKARKAKSKEMVNEKNIYNTQSSRHHNNSAPNLPLASHSKPQVRNFEESMNNPLPPLPPLPDLDNMRKTDKRAPKKSYSANDLHMARSSREYNYYKDNQKFYDGFIPEKRYSLEEDSISSGLFSNSQYLNDSACSSENSFALMSDFSATSAGSFARHKYAQSFSDSLQRSQNANGCSTKINDSQEFGDSNASSRNGKMGDILRKIIIPKRNTNIYSSSVSSPKSPKAYPKLPDIQNLNLSATPDEARDWIAVKCHLNRARTLTKYDKHPRYMRALEENRDLILHPQDSIYNGLNTNEVKGNTKPGLVDVELAELNIEYIDKMTWKRCIRDGTMTLDSWAQTTFSARYSTVLEKLRGIYIFCTEMFALTDDNGTSDFSAEPQNLEKILYRKHCTPYELTWLFKKLANSLGITCEIVIGFLKTPSAINWEFKYNHCWLRILVNKEWRFIDVILGNVTNPIHEFVNNRKIKKAENSYFLMAPLEMIYTHIPPREFEQHIVPSIDQLSALYLPLVFPSFFKNELKLYKFSTALSFLEDSEIYECSLEIPNDVEVFASVVIPTDNEEASSAYRNMELALTQIKKQKAESGRRIALIKAVLPPNVNKGSLYIHSGVRGTQTSIANIHPLSMMVPLTHKGSNMKYEFVIKIPSESIQKIELYIVEPQSRYLFVGNEYSFEVIQSPSDGIVYSSDEGPNQNRKQPMAIKSPSGRVHELVKSDPHFPYGTWKGSIKIKEPGVWSALVIADSGIGWSVFAEWLCV

System: Abp1 PPIs
Test: DHFR-PCA of Abp1 SH3-swapped baits (Fig. 2B-D, S2C, S2F)
Type: cell-based, Saccharomyces cerevisiae
Settings: number of interactions of Abp1 carrying the named SH3; sheet FigS2A-B
Description: Having determined that multiple PPIs require SH3s, we asked whether the latter establish PPI specificity independently from their host proteins by swapping domains (Fig. 2A). Using the second round of genome editing, we individually replaced Abp1 SH3 with the 27 yeast SH3s and 3 human Abp1 orthologs’ SH3s (CTTN, HCLS1, and DBNL, Fig. 2B). The reintroduction of its own SH3 (Abp1SH3 in Abp1) reconstitutes almost perfectly Abp1’s interaction profile (Kendall’s τ = 0.93, Fig. 2B). […] No homologous SH3 domain fully re-establishes the normal Abp1 PPI profile (Fig. 2B and Supplementary Fig. 2C). However, we observe a significant correlation (cophenetic correlation = 0.20, p value = 0.005, Fig. 2C) between the similarity of PPI profiles (Fig. 2B) and the sequence similarity of the SH3s. […] Nonetheless, a subset of SH3-dependent PPIs is only observed with the endogenous domain. For instance, Hua2 and App1, both well-characterized partners of Abp1[14],[18],[19], are only detected when Abp1 contains its own SH3 (WT or swapped via editing). A given SH3 may therefore not be fully replaceable with other paralogous or orthologous domains. This pattern is confirmed by cellular growth phenotypic analyses (Supplementary Fig. 2D, E). PPIs, SH3 sequence similarity, and growth profiles under stress conditions are correlated (Supplementary Fig. 2D, E). This relationship is particularly clear when analyzing growth on media supplemented with hygromycin.
The stuffing of YSC84 SH3 rendered the strain sterile and was therefore not used for this study as the assays require crosses. For genes containing two SH3s (BZZ1 and BEM1), a combination of this first stuffer with a second one ([…]) coding for a highly similar linker ([…]) was used, which allowed targeting each SH3 position independently. The two N-terminal domains of SLA1, which are separated by six nucleotides, were stuffed by a single stuffer. Cells containing pCAS were selected via the G418 resistance cassette from the plasmid on YPD plates (YPD + NAT 100 μg/ml (DHFR F[1,2] selection) + G418 200 µg/mL (Bioshop Canada)). Colonies were randomly selected and grown in YPD media without G418 to allow plasmid loss. The correct insertion of the stuffer was validated by PCR and Sanger sequencing. The SH3-swapped, -shuffled, and -mutated strains were constructed following a second CRISPR–Cas9 editing step with the same procedures. The stuffer sequences were targeted by specific gRNAs (one gRNA per stuffer) and replaced by PCR amplified specific SH3 (with 40 bp homology arms) or libraries of mutated SH3 domains for Deep Mutational Scanning (DMS) with 78 bp flanking homology regions. Validation of the SH3 domain insertions was done as we previously described except for DMS libraries (see below).
The overall DHFR-PCA pipeline is based on Tarassov et al.[43] and the procedures have also been published as a visualized protocol. The screens were performed with robotically manipulated pin tools (BM5-SC1, S&P Robotics Inc.). First, the preys were cherry-picked from 96-well plates to omnitrays in a 384 format on YPD + HPH solid media. Plates were then combined into the 1536 format on YPD + HPH. The array was constituted of 575 preys previously shown to interact physically with at least one SH3-containing protein as reported in BioGRID V3.4.16 along with 40 negative controls. The prey array comprised a border of control strains of two rows and two columns corresponding to the PPI between LSM8-DHFR F[1,2] and CDC39-DHFR F[3]. This double border was used to remove border effects. Preys are present in duplicate at a randomized position in the 1536 array (except for YAL041W which is present four times per array). Baits were crossed with two prey plates, resulting in four independent bait–prey tests for each PPI. Baits were grown in liquid YPD + NAT and then transferred on solid YPD + NAT omnitrays. They were then replicated on YPD + NAT omnitrays in 1536 array format. […]

Molecule	Interactions in Abp1
B1	50
B2	86
B3	62
B4	25

System: Abp1 (1xFLAG)
Test: Western blot expression level of Abp1 SH3-swapped baits (Fig. S2A-B)
Type: cell-based, Saccharomyces cerevisiae
Parameters: Flag (2 bands): unit not given here
Settings: Flag signal relative to Abp1 WT (Abp1-1 to Abp1-4 = 1); sheet FigS2A-B
Protocol: Precultures of yeast cells expressing baits fused with the DHFR F[1,2]-FLAG were grown overnight at 30 °C with agitation in synthetic complete medium. The next day, cells were expanded in synthetic complete medium to reach their exponential phase (OD600 of around 1.0), pelleted, and frozen at −80 °C. The equivalent of fifty OD600 of cells was resuspended in ice-cold yeast lysis buffer (10 mM Tris-HCl pH 7.4, 150 mM NaCl, 0.5 mM EDTA (Millipore Sigma), 1% Triton X-100 (Millipore Sigma), and one cOmplete Mini Protease Inhibitor Cocktail (Millipore Sigma) per 10 mL) with […] glass beads (Millipore Sigma) and disrupted at 4 °C by 10 cycles of 2 min vortexing and 2 min cooldown. The equivalent of […] of lysed cells was used for the immunoprecipitation of the bait proteins using FLAG-M2 agarose beads (Millipore Sigma). The beads were incubated with the cell lysates for 120 min at 4 °C with a slow rotation, followed by three washes with the yeast lysis buffer.
Protein extracts and affinity-purified baits from yeast and human lysed cells were migrated on 10% polyacrylamide gels. The separated proteins were then transferred to nitrocellulose membranes. Validation of correct protein loading was done with ponceau staining of the membranes. Before the primary antibody incubations, membranes were blocked in 5% milk. Protein signals were detected on an Amersham Imager 600RGB (GE Healthcare) following the incubation of the membranes with the appropriate HRP-conjugated secondary antibodies and the Clarity Western ECL Substrate (Bio-Rad). The antibodies used in this study are M2-HRP (A8592, Sigma, 1/50,000), rabbit anti-FLAG (F7425, Sigma, 1/1000), PAK (SC-881, Santa Cruz, 1/200), p130cas/BCAR1 (SC-860, Santa Cruz, 1/200), actin (Cell Signaling Technology, 1/2000), anti-mouse HRP (Cell Signaling Technology, 1/10,000) and anti-rabbit HRP (Cell Signaling Technology, 1/10,000). The quantification of the WB signals was performed with the Amersham Imager 600 analysis software (GE Healthcare).

Molecule	Ratio Swap/WT Flag
B1	0.8195
B2	1
B3	0.9819
B4	0.2689

Same assay, conditions: Western blot Flag signal (2 bands), Abp1 WT, SH3-deleted or SH3-swapped; sheet FigS2A-B

Molecule	Flag (2 bands)
B1	181205
B2	221127
B3	95048
B4	59466
